Data from patent US7022488.

Assays:
Gi proteins = experiment: cell-based or functional assay
Gs = experiment: cell-based or functional assay

Row | Substance | increase of the isoproterenol cAMP response after pertussis toxin treatment (Gi proteins) | increase in cAMP levels after pertussis toxin treatment (Gs)
1 | β-adrenergic receptor (β2AR) (from UniProt P07550 1-413) | > 17 fold | 
2 | human umami taste receptor hT1R1/hT1R3 (from UniProt Q7RTX1 21-841; Q7RTX0 21-852) |  | 25%
